This is an account of results in patent US20250215089A1 (HARBOUR BIOMED SHANGHAI, published 2025).

The target of one test is T1, cynomolgus monkey PD-L1 (cynomolgus monkey).
T1 construct: whole, on cells; also called cyPD-L1
Put plainly: FACS, CHO-K1/cyPD-L1 cells. As for the experimental part: (§1) Specifically, the cells expressing PD-L1 were digested and resuspended in PBS buffer containing 2% BSA. The cells were adjusted to a cell density of 1×10⁶ cells/mL, respectively. The cells were seeded in a 96-well V-bottom plate (Corning, #3894) at 100 μL/well, and the antibody to be tested at 2×final concentration with 4-fold concentration gradient dilution was then added at 100 μL/well. The cells were incubated at 4° C. for 2 hours in the dark. After the incubation, the cells were rinsed twice by adding pre-chilled PBS containing 2% BSA at 100 μL/well, and centrifuged at 500 g at 4° C. for 5 minutes, and the supernatant was discarded. […] The cells were washed twice by adding pre-chilled PBS containing 2% BSA at 100 µL/well, and centrifuged at 500 g at 4° C. for 5 minutes, and the supernatant was discarded. Finally, the cells were resuspended in pre-chilled PBS buffer containing 2% BSA at 200 μL/well. The fluorescence signal values were read using a BD FACS CANTOII flow cytometer or ACEA NovoCyte flow cytometer, and the data were processed and analyzed using FlowJo v10 software (FlowJo, LLC).
In general terms: A flow cytometer gives signals particle by particle.

Test [1] deals with T2, human CD40 (human, UniProt P25942 21-277).
T2 construct: whole, on cells; also called hCD40; TNFRSF5
T2 sequence (P25942 21-277): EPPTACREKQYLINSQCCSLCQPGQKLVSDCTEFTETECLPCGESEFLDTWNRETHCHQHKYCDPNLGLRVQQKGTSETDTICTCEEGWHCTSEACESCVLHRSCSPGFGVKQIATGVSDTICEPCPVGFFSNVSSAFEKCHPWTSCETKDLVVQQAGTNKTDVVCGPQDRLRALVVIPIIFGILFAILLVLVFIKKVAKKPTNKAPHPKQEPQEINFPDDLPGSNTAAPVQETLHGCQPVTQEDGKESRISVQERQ
Nature of the test: FACS, CHO-K1/hCD40 cells. The protocol: (§2) The cells were incubated at 4° C. for 1 hours in the dark. After the incubation, the cells were rinsed twice by adding pre-chilled PBS at 100 μL/well, and centrifuged at 500 g at 4° C. for 5 minutes, and the supernatant was discarded. Then, a fluorescent secondary antibody (goat anti-human IgG (H+L) secondary antibody, Alexa Fluor® 488 conjugate, Invitrogen, #A11013, 1:1000 dilution) was added at 100 μL/well, and the cells were incubated at 4° C. for 30 minutes in the dark. The cells were washed twice with pre-chilled PBS at 200 μL/well, and centrifuged at 500 g at 4° C. for 5 minutes, and the supernatant was discarded. Finally, the cells were resuspended in pre-chilled PBS at 200 μL/well. The fluorescence signal values were read using a BD FACS CANTOII flow cytometer or ACEA NovoCyte flow cytometer, and the data were processed and analyzed using FlowJo v10 software (FlowJo, LLC).

The target in test [2] is T3, human PD-L1 (human, UniProt Q9NZQ7 19-290).
T3 construct: whole, on cells; also called hPD-L1; CD274
T3 sequence (Q9NZQ7 19-290): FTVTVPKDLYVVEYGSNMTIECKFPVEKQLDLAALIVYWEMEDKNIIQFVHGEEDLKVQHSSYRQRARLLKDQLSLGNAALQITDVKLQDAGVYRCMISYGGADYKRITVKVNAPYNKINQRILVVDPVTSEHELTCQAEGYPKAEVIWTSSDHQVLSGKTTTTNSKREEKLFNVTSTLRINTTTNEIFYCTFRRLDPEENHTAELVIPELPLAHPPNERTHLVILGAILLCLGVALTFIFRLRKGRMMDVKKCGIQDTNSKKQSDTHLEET
Put plainly: FACS, NCI-H226 cells. As for the experimental part: as §1

The target of test [3] is T2, human CD40. Nature of the test: FACS, Raji cells. The protocol: as §2
A further test addresses T4, cynomolgus monkey CD40 (cynomolgus monkey).
T4 construct: whole, on cells; also called cyCD40
Put plainly: FACS, CHO-K1/cyCD40 cells. The protocol: as §2

The target of test [4] is T3, human PD-L1. Nature of the test: FACS, CHO-K1/hPD-L1 cells. As for the experimental part: as §1
Test [5] addresses T3, human PD-L1. Put plainly: cell-based or functional assay.

Changes are numbered by the printed parent chain. In names and notes the source's numbering stands.

By EC50 is commonly meant the concentration that produces a half-maximal response.

B1: PR007616 (bispecific antibody, human IgG1, kappa)
heavy: QVQLVESGGGVVQPGMSLRLSCAASGFDFSSYGMYWVRQAPGKGQEWVASIRYTGTEKHYADSVKGRFTISRDNSKNTLYLEMNSLRVEDTAVYYCAKNRALFGVIPDDSDIRGQGTMVTVSSGGGGSQVQLVQSGAEVKKPGASVKVSCKASGYTFAGYYMYWVRQAPGQGLEWMGWINPDSGAPTYAQKFQGRVTMTRDTSISTAYMELSRLRSDDTAVYYCAREKIYYGSGNYYPSFDYWGQGTLVTVSSASTKGPSVFPLAPSSKSTSGGTAALGCLVKDYFPEPVTVSWNSGALTSGVHTFPAVLQSSGLYSLSSVVTVPSSSLGTQTYICNVNHKPSNTKVDKKVEPKSCDKTHTCPPCPAPEAAGAPSVFLFPPKPKDTLMISRTPEVTCVVVDVSHEDPEVKFNWYVDGVEVHNAKTKPREEQYNSTYRVVSVLTVLHQDWLNGKEYKCKVSNKALPAPIEKTISKAKGQPREPQVYTLPPSREEMTKNQVSLTCLVKGFYPSDIAVEWESNGQPENNYKTTPPVLDSDGSFFLYSKLTVDKSRWQQGNVFSCSVMHEALHNHYTQKSLSLSPGK
light: DIQLTQSPSFLSASVGDRVTITCRASQGISSYLAWYQQKPGKAPKLLIYAASTLQSGVPSRFSGSGSGTEFTLTISSLQPEDFATYYCQQLYSYPWTFGQGTKVEIKRTVAAPSVFIFPPSDEQLKSGTASVVCLLNNFYPREAKVQWKVDNALQSGNSQESVTEQDSKDSTYSLSSTLTLSKADYEKHKVYACEVTHQGLSSPVTKSFNRGEC
notes: VH of PR006248 (PD-L1) - GS_5 - heavy chain of CD40 IgG PR006497; human IgG1 L234A/L235A/G237A; also called PD-L1×CD40
Turning to B1, the EC50 is 0.687 nM with cynomolgus monkey PD-L1; 1.99 nM with human CD40 [1]; 0.303 nM in the test with human PD-L1 [2]; 1.24 nM with human CD40 [3]; 2.22 nM in the test with cynomolgus monkey CD40; 1.07 nM in the test with human PD-L1 [4]. Also, the “Maximum MFI” value with cynomolgus monkey PD-L1 amounted to 4750 MFI; with human CD40 [1], 19200 MFI; in the test with human PD-L1 [2], 800 MFI; with human CD40 [3], 6680 MFI; with cynomolgus monkey CD40, 64700 MFI; with human PD-L1 [4], 20300 MFI. In the test with human PD-L1 [5], the “EC50, Jurkat-NFAT-hPD1 reporter” value came out at 0.204 nM. For the same molecule, in the test with human PD-L1 [5], the “Maximum (RLU), Jurkat-NFAT-hPD1 reporter” value came to 2590 RLU.

B2: PR007617 (bispecific antibody, human IgG1, kappa)
heavy: QVQLVESGGGVVQPGMSLRLSCAASGFDFSSYGMYWVRQAPGKGQEWVASIRYTGTEKHYADSVKGRFTISRDNSKNTLYLEMNSLRVEDTAVYYCAKNRAIFGVIPDDSDIRGQGTMVTVSSGGSQVQLVQSGAEVKKPGASVKVSCKASGYTFAGYYMYWVRQAPGQGLEWMGWINPDSGAPTYAQKFQGRVTMTRDTSISTAYMELSRLRSDDTAVYYCAREKIYYGSGNYYPSFDYWGQGTLVTVSSASTKGPSVFPLAPSSKSTSGGTAALGCLVKDYFPEPVTVSWNSGALTSGVHTFPAVLQSSGLYSLSSVVTVPSSSLGTQTYICNVNHKPSNTKVDKKVEPKSCDKTHTCPPCPAPEAAGAPSVFLFPPKPKDTLMISRTPEVTCVVVDVSHEDPEVKFNWYVDGVEVHNAKTKPREEQYNSTYRVVSVLTVLHQDWLNGKEYKCKVSNKALPAPIEKTISKAKGQPREPQVYTLPPSREEMTKNQVSLTCLVKGFYPSDIAVEWESNGQPENNYKTTPPVLDSDGSFFLYSKLTVDKSRWQQGNVFSCSVMHEALHNHYTQKSLSLSPGK
light: B1 light with Y92A
notes: VH of PR006246 (PD-L1) - GS_3 - heavy chain of CD40 IgG PR006495; human IgG1 L234A/L235A/G237A; also called PD-L1×CD40
On to B2, for which the half-maximal effective concentration (EC50) is 0.635 nM in the test with cynomolgus monkey PD-L1; 1.96 nM with human CD40 [1]; 0.337 nM in the test with human PD-L1 [2]; 1.27 nM in the test with human CD40 [3]; 2.45 nM in the test with cynomolgus monkey CD40; 1.01 nM with human PD-L1 [4]. The “Maximum MFI” value in the test with cynomolgus monkey PD-L1 is 4830 MFI; with human CD40 [1], 16800 MFI; in the test with human PD-L1 [2], 831 MFI; in the test with human CD40 [3], 6850 MFI; with cynomolgus monkey CD40 it was 58700 MFI; in the test with human PD-L1 [4], 20200 MFI. For the same molecule, the “EC50, Jurkat-NFAT-hPD1 reporter” value with human PD-L1 [5] came out at 0.157 nM. Moreover, the “Maximum (RLU), Jurkat-NFAT-hPD1 reporter” value with human PD-L1 [5] is 2190 RLU.
